In patent publication US20110008375A1, “Uses of Myostatin Antagonists” (AMGEN INC., priority 2005, published 2011):

T1: myostatin (Homo sapiens, UniProt O14793)
T1 construct: To produce mature myostatin, the pooled promyostatin was enzymatically cleaved between the propeptide and mature myostatin C terminal; made in house; host or cells: E. coli K-12 strain 2596 (ATCC # 202174)
T1 sequence (O14793 267-375): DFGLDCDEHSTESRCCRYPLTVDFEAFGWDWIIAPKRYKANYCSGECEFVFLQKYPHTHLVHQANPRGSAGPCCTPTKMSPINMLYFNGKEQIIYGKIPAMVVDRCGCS


target: T1, myostatin; test: C2C12 pMARE-luc cell based myostatin activity assay; conditions: not given
From the text: A myostatin-responsive reporter cell line was generated by transfection of C2C12 myoblast cells (ATCC No: CRL-1772) with a pMARE-luc construct. The pMARE-luc construct was made by cloning twelve repeats of the CAGA sequence, representing the myostatin/activin response elements (Dennler et al. EMBO 17: 3091-3100 (1998)) into a pLuc-MCS reporter vector (Stratagene cat #219087) upstream of the TATA box. The myoblast C2C12 cells naturally express myostatin/activin receptors on its cell surface. When myostatin binds the cell receptors, the Smad pathway is activated, and phosphorylated Smad binds to the response element (Macias-Silva et al. Cell 87:1215 (1996)), resulting in the expression of the lucerase gene. Luciferase activity is then measured using a commercial luciferase reporter assay kit (cat #E4550, Promega, Madison, Wis.) according to manufacturer's protocol. A stable line of C2C12 cells that had been transfected with pMARE-luc (C2C12/pMARE clone #44) was used to measure myostatin activity according to the following procedure.
Equal numbers of the reporter cells (C2C12/pMARE clone #44) were plated into 96 well cultures. A first round screening using two dilutions of peptibodies was performed with the myostatin concentration fixed at 4 nM. Recombinant mature myostatin was pre-incubated for 2 hours at room temperature with peptibodies at 40 nM and 400 nM respectively. The reporter cell culture was treated with the myostatin with or without peptibodies for six hours. Myostatin activity was measured by determining the luciferase activity in the treated cultures. This assay was used to initially identify peptibody hits that inhibited the myostatin signaling activity in the reporter assay. Subsequently, a nine point titration curve was generated with the myostatin concentration fixed at 4 nM. The myostatin was preincubated with each of the following nine concentrations of peptibodies: […], 0.4 nM, 4 nM, 20 nM, 40 nM, 200 nM, 400 nM, 2 uM and 4 uM for two hours before adding the mixture to the reporter cell culture. The IC50 values were for a number of exemplary peptibodies are provided in Tables III and for affinity matured peptibodies, in Table VIII.

inhibition of myostatin activity in cell-based assay	Molecule
inhibit myostatin activity	L2: peptibody: peptide MEMLDSLFELLKDMVPISKA fused to human IgG1 Fc

same assay, conditions: affinity matured peptibodies; a range of values is given

IC50 [nM]	Molecule
32.8	mL15-7 (QVDSLQQVLLWLEHKLALGPQV)
354	mL15-9 (QIEMLESLLDLLRDMVPMSNAF)
123	mL20-2 (TQRDMSMLDGLLEVLDQLRQQR)
158	mL20-3 (TSRDMSLLWELLEELDRLGHQR)
160	mL20-4 (MQHDMSMLYGLVELLESLGHQI)
7.51 to 34.4	mTN8-19-2 (YPEQGLCTRWPWMCPPQTLA)
16.7	mTN8-19-4 (MITQGQCTRWPWMCPPQPSG)
3.5 to 7.74	mTN8-19-5 (AGAQEHCTRWPWMCAPNDWI)
17.3	mTN8-19-6 (GVNQGQCTRWRWMCPPNGWE)
18.8 to 23	mTN8-19-9 (TQTHAQCTRWPWMCPPQWEG)
5.25 to 7.4	mTN8-19-10 (VVTQGHCTLWPWMCPPQRWR)
28.7	mTN8-19-11 (IYPHDQCTRWPWMCPPQPYP)
980	mTN8-19-12 (SYWQGQCTRWPWMCPPQWRG)
20	mTN8-19-13 (MWQQGHCTRWPWMCPPQGWG)
4.07 to 6.56	mTN8-19-14 (EFTQWHCTRWPWMCPPQRSQ)
4.65	mTN8-19-16 (YQTQGLCTRWPWMCPPQSQR)
6.58	mTN8-19-23 (PGAHDHCTRWPWMCPPQSRY)
1.67 to 2.93	mTN8-19-24 (VAEEWHCRRWPWMCPPQDWR)
4.84 to 4.92	mTN8-19-27 (ADTQGHCTRWPWMCPPQHWF)
4.39	mTN8-19-28 (SGPQGHCTRWPWMCAPQGWF)
6.36	mTN8-19-29 (TLVQGHCTRWPWMCPPQRWV)
5.03 to 5.07	mTN8-19-34 (IPAHGHCTRWPWMCPPQRWR)
0.857 to 2.65	2xmTN8-19-7 (protein, Peptibody) GGGGGAQLADHGQCIRWPWMCPPEGWELEGSGSATGGSGSTASSGSGSATGLADHGQCIRWPWMCPPEGWELE
0.994 to 1.22	2xmTN8-19-22 (protein, Peptibody) GGGGGAQTFSQGHCTRWPWMCPPQGWGLEGSGSATGGSGSTASSGSGSATGTFSQGHCTRWPWMCPPQGWGLE
0.828 to 1.43	2xmTN8-19-21 (protein, Peptibody) GGGGGAQSEYQGLCTRWPWMCPPQGWKLEGSGSATGGSGSTASSGSGSATGSEYQGLCTRWPWMCPPQGWKLE

same assay, conditions: pMARE luc cell-based assay; Table III

IC50 [nM]	Molecule
~11	Linear-20: peptibody: peptide YREMSMLEGLLDVLERLQHY fused to human IgG1 Fc
~30	TN12-34: peptibody: peptide AHWCEQGPWRYGNICMAY fused to human IgG1 Fc

target: T1, myostatin; test: BIAcore affinity analysis on immobilized myostatin; format: binding; conditions: Biacore assay; Table III
Protocol: An affinity analysis of each candidate myostatin peptibody was performed on a BIAcore®3000 (Biacore, Inc., Piscataway, N.J.), apparatus using sensor chip CM5, and 0.005 percent P20 surfactant (Biacore, Inc.) as running buffer.
Direct binding assays were used to screen and rank the peptibodies in order of their ability to bind to immobilized myostatin. Binding assays were carried by injection of two concentrations (40 and 400 nM) of each candidate myostatin-binding peptibody to the immobilized myostatin surface at a flow rate of 50 μl/min for 3 minutes. After a dissociation time of 3 minutes, the surface was regenerated. Binding curves were compared qualitatively for binding signal intensity, as well as for dissociation rates. Peptibody binding kinetic parameters including ka (association rate constant), kd (dissociation rate constant) and KD (dissociation equilibrium constant) were determined using the BIA evaluation 3.1 computer program (Biacore, Inc.). The lower the dissociation equilibrium constants (expressed in nM), the greater the affinity of the peptibody for myostatin.

Kd [nM]	Molecule
~7	ActRIIB/Fc: soluble receptor fusion protein actRIIB/Fc (R&D Systems), recombinant human activin receptor IIB/Fc chimera (protein, left off: a dimerising Fc or GST) SGRGEAETRECIYYNANWELERTNQSGLERCEGEQDKRLHCYASWRNSSGTIELVKKGCWLDDFNCYDRQECVATEENPQVYFCCCEGNFCNERFTHLPEAGGPEVTYEPPPTAPT

system: CD1 nu/nu mice; test: In vivo anabolic activity in CD1 nu/nu mouse model; conditions: CD1 nu/nu male mice; 1 and 3 mg/kg twice weekly, 35 days; 2× vs 1× peptibody or control
From the text: The CD1 nu/nu mouse model (Charles River Laboratories, Massachusettes) was used to determine the in vivo efficacy of the peptibodies of the present invention which included the human Fc region (huFc). This model responded to the inhibitors of the present invention with a rapid anabolic response which was associated with increased dry muscle mass and an increase in myofibrillar proteins but was not associated with accumulation in body water content.
A group of 10 8 week old CD1 nu/nu mice were treated twice weekly or once weekly with dosages of 1 mg/kg, 3 mg/kg and 10 mg/kg (subcutaneous injection). The control group of 10 8 week old CD1 nu/nu mice received a twice weekly (subcutaneous) injection of huFc (vehicle) at 10 mg/kg. The animals were weighed every other day and lean body mass determined by NMR on day 0 and day 13. The animals are then sacrificed at day 14 and the size of the gastrocnemius muscle determined.
In another example, the 1×mTN8-19-32 peptibody was administered to CD1 nu/nu mice in a biweekly injection of 1 mg/kg, 3 mg/kg, 10 mg/kg, and 30 mg/kg compared with the huFc control (vehicle).
CD1 nu/nu male mice (10 animals per group) were treated with twice weekly injections of 1 mg/kg and 3 mg/kg of 1×mTN8-19-7 and 2×mTN8-19-7 for 35 days, while the control group (10 animals) received twice weekly injections of huFc (3 mg/kg).

Molecule	body weight gain (FIG. 5)	lean carcass weight at necropsy (FIG. 5)
2x mTN8-19-7: affinity matured 2× peptibody (two peptides in tandem), TN8-19 family, human Fc (protein, Peptibody) GGGGGAQLADHGQCIRWPWMCPPEGWELEGSGSATGGSGSTASSGSGSATGLADHGQCIRWPWMCPPEGWELE	greater body weight gain	greater

system: C57B1/6 mice; test: Gripping strength in normal C57B1/6 mice; format: in vivo, mouse; conditions: 30 days s.c. 5 mg/kg per week, measured day 18 of recovery
Protocol: The animals were allowed to recover without any further injections. Gripping strength was measured on day 18 of the recovery period. Griping strength was measured using a Columbia Instruments meter, model 1027 dsm (Columbus, Ohio).

Molecule	increase in gripping strength compared with control-treated mice [%]
2x mTN8-19-7: affinity matured 2× peptibody (two peptides in tandem), TN8-19 family, human Fc (protein, Peptibody) GGGGGAQLADHGQCIRWPWMCPPEGWELEGSGSATGGSGSTASSGSGSATGLADHGQCIRWPWMCPPEGWELE	15
2x mTN8-19-33: affinity matured 2× peptibody of the TN8-19 family, human Fc (protein, Peptibody) GGGGGAQPESQGHCTRWPWMCPPQGWGLEGSGSATGGSGSTASSGSGSATGPESQGHCTRWPWMCPPQGWGLE	14

system: not listed separately; test: In vivo pharmacokinetics in CD1 nu/nu mice; set-up: species or system mouse; conditions: peptibodies without LE sequences, 10 mg/kg and 5 mg/kg
Protocol: In vivo pharmacokinetics experiments were performed using representative peptibodies without the LE sequences. 10 mg/kg and 5 mg/kg dosages were administered to CD1 nu/nu mice and the following parameters determined. Cmax (ug/mL), area under the curve (AUC) (ug-hr/mL), and half-life (hr).

Molecule	half-life
2x mTN8-19-7: affinity matured 2× peptibody (two peptides in tandem), TN8-19 family, human Fc (protein, Peptibody) GGGGGAQLADHGQCIRWPWMCPPEGWELEGSGSATGGSGSTASSGSGSATGLADHGQCIRWPWMCPPEGWELE	about 106 hours
2×mTN8-19-22: affinity matured 2× peptibody of the TN8-19 family, human Fc (protein) GGGGGAQTFSQGHCTRWPWMCPPQGWGLEGSGSATGGSGSTASSGSGSATGTFSQGHCTRWPWMCPPQGWGLE	about 85.2 hours
